According to patent WO2021221136A1 (dated 2021):

Molecular target: T1, SARS-CoV-2 S1 subunit-Fc (Fc-tagged S1 protein, The Native Antigen Company) (SARS-CoV-2, UniProt P0DTC2 14-674)
T1 construct: domain: S1 subunit
Assay: BLI (BLItz), His-tagged CoVHH1 on Ni-NTA sensor, S1-Fc 0-693.1 nM in solution, global fitting

B1: His-tagged CoVHH1 (VHH)
VHH: AEVQLVESGGGQVETGGSLRLSCQASGSTFSDYVMAWFRQRPGKEREFVATISRNGGTTTYGSSVKGRFTISRDNAKSTVYLQMNSLKPEDTAVYYCYAVGGDGDSWGQGTQVTVSSEPKTPKPQSHHHHHH
notes: also called CoVHH1-His; His-tagged VHH
Question: B1 was tested. Which Kd did it give?
Answer: 7.13 nM

Question: What about the koff of the same binder?
Answer: 0.000114 s⁻¹

Question: What about the kon of the same binder?
Answer: 16000 M⁻¹ s⁻¹
